Measured values from paper PMC2811425.

Columns and labels:
C[C@H](O)C(=O)O = experiment: cells, lysate or membranes
CC(=O)C(=O)O = experiment: cells, lysate or membranes

MCT1 (Rattus norvegicus) showed a Km (C[C@H](O)C(=O)O) of 5.7 ± 1.2 mM and a Km (CC(=O)C(=O)O) of 1.2 ± 0.2 mM.
